# Experiment: yeast display, Sf9 membrane polyspecificity reagent, FACS + sequencing; frameworks hold sequencing errors
# In short: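 Nanobodies came from a synthetic yeast display library in Saccharomyces cerevisiae BJ5465, induced with galactose for 36–48 hours and stained for 1 hour at 4 °C with 10% biotinylated, detergent-solubilized Sf9 membrane reagent. Cells were enriched on streptavidin microbeads and then FACS-sorted, with low and high (top ~1%) gates set on anti-HA fluorescence for expression and streptavidin fluorescence for reagent binding. Each polyreactivity label reflects the gate a clone came from. Genes were amplified by colony PCR, sequenced by MiSeq 2 × 250 and filtered by CDR length.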
row,Sequence,polyreactivity (PSR sort gate)
1,QVQLVESGGGLVQAGGSLRLSCAASGFTFRYYAMGCYRQAPGKVRELVAAITGSGTRTYYADSVKGRFTISRDNAKNTVYLQMNSLKPEDTALYYCNAPRQPRWFDYWGQGTQVTVSS,high polyreactivity
2,QVQLVESGGGLVQAGGSLRLSCAASGFTFRYYAMGSYRQAPGKERELVAAISAGGGSTYYADSVKGRFTISRDNAKNTVYLQMNSLKPEDTAVYYCAAAGARPGYDYWGQGTQVTVSS,high polyreactivity
3,QVQLVESGGGLVQAGGSLRLSCAASGFTFRYYAMGWSRQAPGKERELLAAITGRGGSTYYADSVKGRFTISRDNAKNTVYFQMNSLNPEDTAVSFCAARFTRVYAQVRNDYWGQGTQVTVSS,high polyreactivity
4,QVQLVESGGGLVQAGGSLRLSCAASGFTFRYYAMGWYRPAPGKERELVAAISSGGRTNYADSVKGRFTISRDNAKNTVYLQMNSLKPEDTAVYYCATASRRGDPRLRFYYWGQGTQVTVSS,high polyreactivity
5,QVQLVESGGGLVQAGGSLRLSCAASGFTFRYYAMGWYRQAPGKEREFVAAIRSSGTTTSYADSVKGRFTISRDNEKNTVYLQMNSLKPEDTAVYYCAAGYFGPQQYYYWGQGTQVTVSS,high polyreactivity
6,QVQLVESGGGLVQAGGSLRLSCAASGFTFRYYAMGWYRQAPGKERELVAAISSGGSTYYADSVKGRFTISRDNAKNTVYLQMNSLKPEDTAVYYCATYLAEYGYWGQGTQVTVSS,high polyreactivity
7,QVQLVESGGGLVQAGGSLRLSCAASGFTFRYYAMGWYRQAPGKERELVASISGTGGRTYADSVKGRFTISRDNAKNTVYLQMNSLKPEDTAVYYCAAWSYAYYYRLRYVSHDYWGQGTQVTVSS,high polyreactivity
8,QVQLVESGGGLVQAGGSLRLSCAASGFTFRYYAMGWYRQAPGKERELVASITSGGSTNYADSVKGRFTISRDNAKNTVYLQMNSLKPEDTAVYYCAAQPYKGTGYDYWGQGTQVTVSS,high polyreactivity
9,QVQLVESGGGLVQAGGSLRLSCAASGFTFRYYAMGWYRQAPGKERELVATITSGGRTYYADSVKGRFTISRDNAKNTVYLQMNSLKPEDTAVYYCAADVWYVRTKYGYDYWGQGTQVTVSS,high polyreactivity
10,QVQLVESGGGLVQAGGSLRLSCAASGFTFRYYVMGWYRQAPGKERELVATITWGGGSTYYADSVKGRFTISRDNAKNTVYLQMNSLKPEDPAVYYCAASLKWGRGVLARVLWYNYWGQGTQVTVSS,low polyreactivity
11,QVQLVESGGGLVQAGGSLRLSCAASGFTFSAYAIGWYRQAPGKETELVAAITLRGGSTYYADSVKGRFTISRDNAKNTVYLQMNSLNPEDTAVYYCAAERIYVAYDYWGQGTQLTVSS,low polyreactivity
12,QVQLVESGGGLVQAGGSLRLSCAASGFTFSAYTMGWYRQAPGKERELVAAINWSAANTYYADSVKGRFTISRDNAKNTVSLQMNSLKPEDTAVYYCNAEDDYTYDRSFGGYKYDYWGQGTQVTVSS,low polyreactivity
13,QVQLVESGGGLVQAGGSLRLSCAASGFTFSAYTMGWYRQAPGKESELVAAINWSGANTYYADSVKGRFTISRDNAKNTVYLQMNSLKPEDTAVYFCNAEDDYTYDRSFGGYKYDYWGQGTQVTVSS,low polyreactivity
14,QVQLVESGGGLVQAGGSLRLSCAASGFTFSDNAMGWYRQAPGKERELVAAISRSGGNTHYADSVKGRFTISRDNAKNTVFLQMNSLKPEDTAVYYCAARPPGGYLYDYWGQGTQVTVSS,high polyreactivity
15,QVQLVESGGGLVQAGGSLRLSCAASGFTFSDYAMGWYRQAPGKDRELVATISNGDSPYYADSVKGRFTISRDNAKNTVYVQMNSLKPVDTAVNYCATDQPYGADPSNDFDYWGQGTQVTVSS,low polyreactivity
16,QVQLVESGGGLVQAGGSLRLSCAASGFTFSFYAMGWYRQAPGKERELVASISDSDGITFYADSVKGSFTISRDNAKNTVYLPMKSLKPEDTAVYYCAADVAIAIPFSYDYWGQGTQVTVSS,low polyreactivity
17,QVQLVESGGGLVQAGGSLRLSCAASGFTFSIYAMGWSRQAPGKERELVAAIRSSTASTYYADSVKGRFTISRDNAKNTVYLQMNSMKPEDTAVYYCAADTYRTRHIGVKFAFNSWGQGTQVTVSS,high polyreactivity
18,QVQLVESGGGLVQAGGSLRLSCAASGFTFSIYAMGWYRHAPGKERELVAAINWSGGSTYYADSVKGRFTISRDNAKNTVYLQMNSLKPEDTAVSYCATEATYGGGPGYEYWGQGTQVTVSS,low polyreactivity
19,QVQLVESGGGLVQAGGSLRLSCAASGFTFSIYAMGWYRQAPGKERELVAAISYRGTSTYYADSVKGRFTISRDNAKNTVYLQMNSLKPEDTAVYYCNKVSSPFVYTVYYWGQGTQVTVSS,high polyreactivity
20,QVQLVESGGGLVQAGGSLRLSCAASGFTFSKYTMGWYRPAPGKERELVAAITSGGSTNYADSVKGRFTISRDNAKNTVYLQMNSLKPEDTAVYYCNKRHIAHNGVGAGLELDYWGQGTQVTVSS,low polyreactivity

row,Sequence,polyreactivity (PSR sort gate)
1,QVQLVESGGGLVQAGGSLRLSCAASGFTFSKYTMGWYRQAPGKERELVAAITSGGSTNYADSVKGRFTISRDNAKNTVYLQMNSLKPEDTAVYYCNKRHIAHNAVGAGLELDYWGQGTQVTVSS,low polyreactivity
2,QVQLVESGGGLVQAGGSLRLSCAASGFTFSLYAMGWYRQAPGKERELVASIDSDGVSTYYADSVKGRFTISRDNAKNTVYLQMNSLKPEDTAVYYCAADFWWGYISGPVRGRGYYWGQGTQVTVSS,low polyreactivity
3,QVQLVESGGGLVQAGGSLRLSCAASGFTFSLYAMGWYRQAPGKEWEVVAAISSRGGTTYYADSVKGRFTISRDNAKNTVYLQMNILKAEDTAVYYCAARYVYTRSAFDYWGQGTQVTVSS,high polyreactivity
4,QVQLVESGGGLVQAGGSLRLSCAASGFTFSLYDMGWYRQAPGKERELVADINGSGGSTYYSDSVKGRFTISRDNAKYTVYFQMNSLKPEDTAVYYCAAGPPSRWWYFVDYGYWGQGTQVTVSS,high polyreactivity
5,QVQLVESGGGLVQAGGSLRLSCAASGFTFSNNVMGWYREAPGKERELVAAISRRGGSTYYADSVKGRFTISRDNAKNTVYLQMNSLKPEDTAVYYCAATYPYYVDTSPGKDDHWRQGTQVTVSS,high polyreactivity
6,QVQLVESGGGLVQAGGSLRLSCAASGFTFSNYAMGWYRQAPGKERELVAAISWSGGSTYYADSVKGRFTISRDNAKNTVYLQMNSLKPEDTAVYYCNVLARPPYYKTRVNSPRSDYWGQGTQVTVSS,high polyreactivity
7,QVQLVESGGGLVQAGGSLRLSCAASGFTFSPYAMGGYRKAPGKERELVAAISSSGGSTYYADSVKGRFTISRDNAKNTVYLQMNSLKPEDTAVYYCATQGTRRPGKFYYWGQGTQVPVSS,high polyreactivity
8,QVQLVESGGGLVQAGGSLRLSCAASGFTFSRNVMGWYRQAPGKERELVADITLSGASTYYADSVKARFTISRDNAKNTVYLQMNSLKPEDTSVYSCAADPYHWRWGWRHDYWGQGTQVTVSS,low polyreactivity
9,QVQLVESGGGLVQAGGSLRLSCAASGFTFSRNVMGWYRQAPGKERELVADITLSGASTYYADSVKGRFTISRDNAKNTVYLQMNSLKPEDTAVYYCAADPYHWRCGWRHDYWGQGTQVTVSS,low polyreactivity
10,QVQLVESGGGLVQAGGSLRLSCAASGFTFSSNAMGWYRQAPGKERELVAAIRGSDGNTYYADSVKGRFTISRDNAKNTVYLQMNSLKPEDTAVYYCNARSYGYRTSRARYNYWGQGTQVTVSS,high polyreactivity
11,QVQLVESGGGLVQAGGSLRLSCAASGFTFSSNVMGWYRQAPGKERELVAAISTSGDGSTYYADSVKGRFTISRDNAKNTVYLQMNSLIPEDTAVYYCAAEYPDEDGVYEYDSWGQGTQVTVSS,low polyreactivity
12,QVQLVESGGGLVQAGGSLRLSCAASGFTFSSYAMGWYRQAPGKERELVAAISRSGGSTYYADSVKGRFTISRDNAKNTVYVQMNSLKPEDTAVYYCAARFFARHYYWGQGTQVTVSS,high polyreactivity
13,QVQLVESGGGLVQAGGSLRLSCAASGFTFSSYAMGWYRQAPGKERELVAAITRSGGNTYYADSVKGRFTISRDYAKNTVYLQMNSLKPEDTAVYDCAAPGKGISPSHYYWGQGTQVTVSS,high polyreactivity
14,QVQLVESGGGLVQAGGSLRLSCAASGFTFSSYAMGWYRQAPGKERELVAAITTRGGTFYADSVKGRFTISRDNAKNTVYLQMNSLKPEDTAVYYCAARRVSGRGYWGQGTQVTVSS,high polyreactivity
15,QVQLVESGGGLVQAGGSLRLSCAASGFTFSTNAMGWYRQAPGKERELVAAISWSGSSTYYADSVKGRFTISRDNAKNTVYLQMNSLKPEDTAVYYCAKSRGQADPTYDYWGQGTQVTVSS,low polyreactivity
16,QVQLVESGGGLVQAGGSLRLSCAASGFTFSTYAMGWYRQAPGKERELVAAISFSGGSTYYADSVKGRFTISRDNAKNTVYLQMNSLKPEDTAVYYCNAVFGYRLPGNYWGQGTQVTVSS,low polyreactivity
17,QVQLVESGGGLVQAGGSLRLSCAASGFTFSTYAMGWYRQAPGKERELVAAITRSGGSTYYADSVKGRFTISRDNAKNTVYLQMNSLKPEDTAVYYCATDASFYDPDLYPYGYDYWGQGTQVTVSS,high polyreactivity
18,QVQLVESGGGLVQAGGSLRLSCAASGFTFSVNAMVWYRQAPGKERELVAAISSRGSITYYADSVKGRFTISRDNAKNTVYLQMNSLKPEDTAVYYCAAKPLTGSSWEDYYWGQGTQVTVSS,high polyreactivity
19,QVQLVESGGGLVQAGGSLRLSCAASGFTFSVYAMGWYRQAPGKERELVATITDSGSTNYADSVKGRFTISRDNAKNTVYLQMNSLKPEDTAVYYCNADFRRYVTYHYYRAVIHHDYWGQGTQVTVSS,high polyreactivity
20,QVQLVESGGGLVQAGGSLRLSCAASGFTFSWYAMGCYRQAPGKVRELVAAITSRGGITYYADSVKGRFTISRDNAKNTVYLQMNSLKPEDTAVYYCNAYSQRYGYYYWGQGTQVTVSS,high polyreactivity

# From the nanobody polyreactivity screen of Harvey et al. (2022)
